Measurements reported in patent US7288251 (ABGENIX, dated 2007).

T1: dog CD40 on blood cells (dog, UniProt Q7YRL5 21-274)
T1 construct: whole, on cells; also called dog blood
T1 sequence (looked up): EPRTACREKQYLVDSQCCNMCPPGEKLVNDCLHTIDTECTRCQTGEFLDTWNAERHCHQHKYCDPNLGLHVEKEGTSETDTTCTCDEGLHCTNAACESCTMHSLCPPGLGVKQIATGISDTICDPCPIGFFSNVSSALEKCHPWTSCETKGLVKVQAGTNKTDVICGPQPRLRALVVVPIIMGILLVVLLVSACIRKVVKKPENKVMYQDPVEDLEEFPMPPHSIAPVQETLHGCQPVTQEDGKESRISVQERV

T2: rat CD40 on blood cells (rat, UniProt A6JXD6 20-289)
T2 construct: also called rat blood
T2 sequence: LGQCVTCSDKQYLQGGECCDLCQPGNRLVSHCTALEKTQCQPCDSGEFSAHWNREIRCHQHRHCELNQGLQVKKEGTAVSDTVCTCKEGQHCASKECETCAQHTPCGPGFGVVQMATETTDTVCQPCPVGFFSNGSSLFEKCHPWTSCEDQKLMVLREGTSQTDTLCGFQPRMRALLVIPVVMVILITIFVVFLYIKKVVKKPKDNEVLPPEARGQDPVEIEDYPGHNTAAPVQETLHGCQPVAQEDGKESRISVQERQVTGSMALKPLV


Assays:
human CD40 on cells [1] = biological target: T3, human CD40 on cells (human, UniProt P25942 21-277); test: cell-based or functional assay
T3 sequence (P25942 21-277): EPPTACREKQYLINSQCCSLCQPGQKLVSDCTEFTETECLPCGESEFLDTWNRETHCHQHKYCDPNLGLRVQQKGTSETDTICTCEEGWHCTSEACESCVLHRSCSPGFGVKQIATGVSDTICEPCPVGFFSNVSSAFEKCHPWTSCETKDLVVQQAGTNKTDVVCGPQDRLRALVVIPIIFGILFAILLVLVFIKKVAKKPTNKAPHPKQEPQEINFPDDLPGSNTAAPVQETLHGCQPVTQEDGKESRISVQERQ

TNFR-1/Ig = biological target: T4, TNFR-1/Ig; test: ELISA, TNFR-1/Ig coated, antibody 1 µg/ml
T4 construct: also called Tumor Necrosis Factor Receptor-1
T4 sequence (P19438 whole entry): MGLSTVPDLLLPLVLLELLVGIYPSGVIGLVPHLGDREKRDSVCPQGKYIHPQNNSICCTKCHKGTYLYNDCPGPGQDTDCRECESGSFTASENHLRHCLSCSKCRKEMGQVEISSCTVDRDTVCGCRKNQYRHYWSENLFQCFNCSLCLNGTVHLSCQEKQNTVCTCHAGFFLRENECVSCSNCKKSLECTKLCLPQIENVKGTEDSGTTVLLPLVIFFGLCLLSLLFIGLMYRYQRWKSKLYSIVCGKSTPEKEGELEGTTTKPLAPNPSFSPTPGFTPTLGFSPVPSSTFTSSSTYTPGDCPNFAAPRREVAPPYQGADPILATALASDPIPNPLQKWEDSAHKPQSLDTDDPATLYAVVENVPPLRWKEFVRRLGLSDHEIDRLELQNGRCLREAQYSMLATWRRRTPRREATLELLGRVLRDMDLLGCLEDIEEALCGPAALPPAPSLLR
Experimental: (§1) We then washed the plate with PBST (PBS+0.1% Tween-20) three times and blocked the plate with PBST+0.5% BSA at 150 µl/well. We incubated the plate at room temperature for 1 hour and then washed with PBST three times. […] We incubated the plate at room temperature for 1 hour then washed with PBST three times. […] We incubated the plate at room temperature for 1 hour and then washed with PBST three times. […] We then read the plate using a SpectraMax™ plate reader.

RANK/Ig = test: ELISA, RANK/Ig coated, antibody 1 µg/ml
RANK/Ig, sequence (Q9Y6Q6 whole entry): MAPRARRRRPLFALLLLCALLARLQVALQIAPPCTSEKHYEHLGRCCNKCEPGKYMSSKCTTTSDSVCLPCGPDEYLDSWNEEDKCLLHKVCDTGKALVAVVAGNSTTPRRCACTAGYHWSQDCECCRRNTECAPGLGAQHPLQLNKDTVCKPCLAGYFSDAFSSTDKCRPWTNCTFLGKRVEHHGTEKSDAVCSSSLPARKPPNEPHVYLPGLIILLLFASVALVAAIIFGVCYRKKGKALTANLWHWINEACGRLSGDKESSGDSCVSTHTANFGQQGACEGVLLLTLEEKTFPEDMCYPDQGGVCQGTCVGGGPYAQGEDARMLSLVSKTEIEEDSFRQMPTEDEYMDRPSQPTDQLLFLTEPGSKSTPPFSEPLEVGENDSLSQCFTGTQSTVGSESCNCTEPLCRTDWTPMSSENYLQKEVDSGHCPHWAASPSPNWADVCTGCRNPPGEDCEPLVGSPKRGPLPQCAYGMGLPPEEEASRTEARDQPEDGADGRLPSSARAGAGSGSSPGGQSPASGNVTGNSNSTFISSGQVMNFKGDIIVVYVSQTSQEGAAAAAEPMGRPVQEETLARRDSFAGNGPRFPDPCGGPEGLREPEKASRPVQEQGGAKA
Experimental: as §1

4-1BB/Ig = biological target: T5, 4-1BB/Ig; test: ELISA, 4-1BB/Ig coated, antibody 1 µg/ml
T5 construct: also called CD137
Experimental: as §1

[2] = biological target: T6, mouse CD40 on blood cells (mouse, UniProt P27512 20-289); test: FACS, whole blood
T6 construct: whole, on cells; also called mouse blood
T6 sequence (P27512 20-289): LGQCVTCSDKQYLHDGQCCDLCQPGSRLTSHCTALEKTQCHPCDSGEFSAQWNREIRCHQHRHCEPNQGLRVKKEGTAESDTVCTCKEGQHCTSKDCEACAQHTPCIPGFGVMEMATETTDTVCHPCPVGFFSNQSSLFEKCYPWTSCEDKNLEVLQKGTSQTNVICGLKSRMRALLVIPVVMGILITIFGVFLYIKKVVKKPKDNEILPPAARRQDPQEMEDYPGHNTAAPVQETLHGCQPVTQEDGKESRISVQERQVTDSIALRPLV

dog CD40 on blood cells = biological target: T1, dog CD40 on blood cells; test: FACS, whole blood
rat CD40 on blood cells = biological target: T2, rat CD40 on blood cells; test: FACS, whole blood
human CD40 on cells [3] = biological target: T3, human CD40 on cells; test: cell-based or functional assay; remark: listed apart in the source
TNFR-2/Ig = biological target: T7, TNFR-2/Ig; test: ELISA, TNFR-2/Ig coated, antibody 1 µg/ml
T7 construct: also called Tumor Necrosis Factor Receptor-2
T7 sequence (P20333 23-257): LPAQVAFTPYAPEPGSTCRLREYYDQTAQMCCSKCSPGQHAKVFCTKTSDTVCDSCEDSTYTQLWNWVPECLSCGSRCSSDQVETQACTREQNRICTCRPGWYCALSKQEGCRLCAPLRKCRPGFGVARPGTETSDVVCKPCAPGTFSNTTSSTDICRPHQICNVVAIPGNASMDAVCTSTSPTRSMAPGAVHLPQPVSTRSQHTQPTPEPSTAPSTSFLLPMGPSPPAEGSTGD
Experimental: as §1

human CD40 on cells [4] = biological target: T3, human CD40 on cells; test: cell-based or functional assay; remark: listed apart in the source
human CD40 on cells [5] = biological target: T3, human CD40 on cells; test: cell-based or functional assay; remark: listed apart in the source
[6] = biological target: T8, human CD40-IgG1 Fc fusion protein (human, UniProt P25942 21-193); test: SPR BIAcore 3000, CD40-Ig immobilised, antibody injected
T8 construct: extracellular domain; also called CD40-Ig fusion protein; CD40-IgG fusion protein; not shown: human IgG1 Fc
T8 sequence (P25942 21-193): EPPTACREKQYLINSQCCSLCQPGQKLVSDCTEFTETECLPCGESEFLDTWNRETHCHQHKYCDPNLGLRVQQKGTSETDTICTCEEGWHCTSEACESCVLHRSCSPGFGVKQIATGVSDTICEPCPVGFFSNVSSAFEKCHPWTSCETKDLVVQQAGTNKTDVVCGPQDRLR

Row | Binder | DC B7-1 (CD80), fold increase in median intensity at 1 µg/ml, 72 h (human CD40 on cells [1]) | DC B7-2 (CD86), fold increase in median intensity at 1 µg/ml, 72 h (human CD40 on cells [1]) | DC CD83, fold increase in median intensity at 1 µg/ml, 72 h (human CD40 on cells [1]) | DC ICAM (CD54), fold increase in median intensity at 1 µg/ml, 72 h (human CD40 on cells [1]) | DC MHC Class II, fold increase in median intensity at 1 µg/ml, 72 h (human CD40 on cells [1]) | CD40 specific signal over the signal for this molecule (TNFR-1/Ig) | CD40 specific signal over the signal for this molecule (RANK/Ig) | CD40 specific signal over the signal for this molecule (4-1BB/Ig) | binding result [2] | binding result (dog CD40 on blood cells) | binding result (rat CD40 on blood cells) | Allo DC/T IFNγ secretion, EC50 (human CD40 on cells [3]) | CD40 specific signal over the signal for this molecule (TNFR-2/Ig) | B cell B7-1 (CD80), fold increase in median intensity at 1 µg/ml (human CD40 on cells [4]) | B cell B7-2 (CD86), fold increase in median intensity at 1 µg/ml (human CD40 on cells [4]) | B cell CD23, fold increase in median intensity at 1 µg/ml (human CD40 on cells [4]) | B cell ICAM (CD54), fold increase in median intensity at 1 µg/ml (human CD40 on cells [4]) | B cell MHC Class II, fold increase in median intensity at 1 µg/ml (human CD40 on cells [4]) | DC IL-12p70 secretion with LPS, EC50 (human CD40 on cells [5]) | Kd [6] | further results
1 | monoclonal antibody 21.2.1 (antibody, human IgG2, kappa, V domains shown, Human IgG2 kappa from hybridoma) VH: QVQLVESGGGVVQPGRSLRLSCAASGFTFSSYVMHWVRQAPGKGLEWVAVMSYDGSSKYYANSVKGRFTISRDNSKNTLYLQINSLRAEDTAVYYCARDGGKAVPGPDYWGQGILVTVSS VL: not shown | 0.9 fold | 7.4 fold | 10.8 fold | 1.5 fold | 1.8 fold | ≥ 100 fold | ≥ 100 fold | ≥ 100 fold | no binding | no binding | no binding | 0.03 µg/mL | ≥ 100 fold | 0.9 fold | 1 fold | 1 fold | 1.3 fold | 1.2 fold | 0.03 µg/mL | – | –
2 | monoclonal antibody 23.5.1 (antibody, human IgG2, kappa, V domains shown, also called hybridoma 23.5.1 (LN 15855), ATCC PTA-4548) VH: QVQLVESGGGVVQPGRSLRLSCVASGFTFSNYGMHWVRQAPGKGLEWVAIISYDGSNKYYADSVKGRFTISRDNSKNTLYVQMNSLRAEDTAVYYCARRGHYGRDYYSYYGLDVWGQGTTVTVSS VL: not shown | 1.1 fold | 10.7 fold | 9.2 fold | 1.2 fold | 2.3 fold | ≥ 100 fold | ≥ 100 fold | ≥ 100 fold | no binding | no binding | no binding | 0.2 µg/mL | ≥ 100 fold | 1.4 fold | 1 fold | 1.1 fold | 1.1 fold | 1.4 fold | 0.1 µg/mL | – | –
3 | monoclonal antibody 10.8.3 (antibody, human IgG2, kappa, V domains shown, Human IgG2 kappa from hybridoma) VH: QVQLQESGPGLVKPSETLSLTCTVSGGSISSYYWIWIRQPAGKGLEWIGRVYTSGSTNYNPSLKSRVTMSVDTSKNQFSLKLSSVTAADTAVYYCARDGLYRGYGMDVWGQGTTVTVSS VL: DIQMTQSPSSVSASVGDRVTITCRASQPISSWLAWYQQKPGKAPKLLIYSASGLQSGVPSRFSGSGSGTDFTLTISSLQPEDFATYYCQQTDSFPLTFGGGTKVEIKR | – | – | – | – | – | ≥ 100 fold | ≥ 100 fold | ≥ 100 fold | no binding | no binding | no binding | – | ≥ 100 fold | – | – | – | – | – | – | 2.23 pM | koff [6]: 4.48e-07 s⁻¹; kon [6]: 222000 M⁻¹ s⁻¹
4 | monoclonal antibody 15.1.1 (antibody, human IgG2, kappa, V domains shown, Human IgG2 kappa from hybridoma; also called hybridoma 15.1.1 (LN 15851), ATCC PTA-3603) VH: QVQLQESGPGLVKPSETLSLTCTVSGGSIRSYYWTWIRQPPGKGLEWIGYIYYSGSTNYNPSLKSRVTISVDMSKNQFSLKLSSVTAADTAVYYCARKGDYGGNFNYFHQWGQGTLVTVSS VL: not shown | – | – | – | – | – | ≥ 100 fold | ≥ 100 fold | ≥ 100 fold | no binding | no binding | no binding | – | ≥ 100 fold | – | – | – | – | – | – | 4.05 pM | koff [6]: 2.83e-07 s⁻¹; kon [6]: 83000 M⁻¹ s⁻¹
